Results published in a protein production outcome set (Wang et al. 2014).

Assay: label from the status in PepcDB records

Row | Sequence | protein production
1 | MTKSHSQDQESTLLRLEHAQAILQRDAALAHIEHMRRSRSWRLTRPLRMLMQLLRHGVINDESEYPTHLPSLVQPLPASIPLEPDIVEDSTSGSAAQHFDLLCFANIDWSARFQRPQQLMTQFAIQGYRVFYIILSPLPAAERPYTAHPVAPGVFEITLRGHARQDYYATCITEGNLRANAEALQALVSDYRIKTAVSVVHLPYWTRLALHLRKAYGWPVQYDCMDEWQDFPNIGQPLLAQEQVLVEQADLVTVTASVLYDKWASTSRRCQLVRNGVDFDFFARCCTPNTLLEELQGPIIGFYGALAEWVDFELVAAIARQRPEWNLVLIGDVFVRDLAGLDRLPNVHLLGRKPYSQMPQYLYHFDVCIIPFRLYNVTHAVDPVKFYEFISAGKPVVAVPLLEMQIYEPYLYFADGPSAFVTQIERALGETDLQRWDQRLALARENDWRQRFEDTRDALVELFPKVSVIIVTYNNVQLTRGCIDSLLRNCAYPNLQLIIVDNASQDSTRNYLRYLARSEPNVSIVLNEQNLGFAAANNQGLRLAQGHYLVLLNNDTVVPKGWLAPLLRHLDDPEVGLVGPTTNAVGNEARVSIDYQDLDDMEDFADRRASQYRGRCFDIPMLAMFCVAMRREVLDQVGWLDEAFGIGMFEDDDYSRRVQAAGLRTVCAEDSYIHHYGQASFKALIASGEYQRLWDKNQAYFESKWGPWQPHRQARRRANADATKMKLTD | failed
2 | MTKSQQKVSSIEKLSNQEGIISALAFDQRGALKRMMAEHQSETPTVEQIEQLKVLVSEELTQYASSILLDPEYGLPASDARNNDCGLLLAYEKTGYDVNAKGRLPDCLVEWSAKRLKEQGANAVKFLLYYDVDDTEEINIQKKAYIERIGSECVAEDIPFFLEVLTYDDNIPDNKSAEFAKVKPRKVNEAMKLFSEDCFNVDVLKVEVPVNMNFVEGFSEGEVVYTKEEAAQHFRDQDAATHLPYIYLSAGVSAELFQDTLKFAHDSGAQFNGVLCGRATWSGAVKVYIEEGEQAAREWLRTVGFKNIDDLNTVLKTTATSWKNK | not failed
3 | MTKTKFEKVLLIVNPKAGQGDLHTNLTKIVPPLAAAFPDLHILHTKEQGDATKYCQEFASKVDLIIVFGGDGTVFECTNGLAPLEIRPTLAIIPGGTCNDFSRTLGVPQNIAEAAKLITKEHVKPVDVAKANGQHFLNFWGIGLVSEVSNNIDAEEKAKLGKIGYYLSTIRTVKNAETFPVKITYDGQVYEDEAVLVMVGNGEYLGGIPSFIPNVKCDDGTLDIFVVKSTGIQAFKDYIGKKLFEDSNENDIFHVKAKSIHIETEEEKEVDTDGESSLHTPCQIELLQGHFTMIYNPAVV | not failed
4 | MTKTSSGLKIMFRKIKLEVVRMDLSTIFASLLGLFLSLLTTGVYRYYSKPKIHKTVGVVILNPDKVDAKKIPPNLPEGLRRVTNSLEQELVLKLKKDQQKKAMLLIKISIIGIIISTIGLILGQ | failed
5 | MTKVHPKFPSTCEESLCDSKAAVVLTVWKKSLLFNCDGFTVYNANGELVFRVDNYMNCPRDNIVLMDASGFPLLSIRRKKLSLGDCWMVYDGETERDPIFTARKNVSIISNRKSLAWVSAKKTVLYEIEGSYGQRSCKILDERRNKKKTAEIKRKETVIGGVAFGKDVYKLIVESEMEPRVAMALTIILDQMFRSS | failed
6 | MTKYGVVGTGYFGAELARFMSKVEGAKITAIYDPVNAAPIAKELNCVATATMEALCTHPDVDCVIIASPNYLRKAPVIAAAKAGKHVFCEKPIALNYQDCKDMVDACKEAGVTFMAGHVMNFFHGVRHAKALIKAGEIGEVTQVHTKRNGFEDVQDEISWKKIRAKSGGHLYHHIHELDCTLFIMDETPSLVSMAAGNVAHKGEKFGDEDDVVLITLEFESGRFATLQWGSSFHYPEHYVLIEGTTGAILIDMQNTAGYLIKAGKKTHFLVHESQAEDDDRRNGNISSEMDGAIAYGKPGKRTPMWLSSIMKLEMQYLHDVINGLEPGEEFAKLLTGEAATNAIATADAATLSSNEGRKVKLTEILG | failed
7 | MTLAPPLPHSNSPCSPCCMDPLLRHGFCLDMSGEIYPVIRLPCSGAAKGVHVMIRFIVKLLLCALVLLPLPAFATSGADTGPDNRLLRMGVRAHGGFTRLSMAFERDIAPVLHQLSGNRVRLVFSNTVGGRWKKLRSYRDAHVEGVVVAPRGNDLMVTVTIKGDPRGVRVSTSPGAGVVSLDVGASLAPRRSPPLAQGREGIKVGVEQLITTFDPPFKSEIPFTPTDRRVLEAMVPPAEAALIMDGEAALYEGNGSEAAEIFAGIGTNSPGRPLALYRLGEANYLLQKYGDALRFFREAERQWPVFLTRSPSTAFCYADSVARSGDLAGGRRLLGSLIAGLADKKYAPALLVRMADILARQGKDQEALAIYRNVADNFTGSKGSWQARMKLADRRLLALEPAAYSSLVKDYLEIYERGTDFGLREQGLFKAALLLSLYGDADQAFARVAEYEKKFPRGMYVSIAKGMREELLVPVYRRITRAGDNEALVKLALENRDYLGRVLAEDDFIKNLSAAFADLGRIKEEVGLYANLAIREQNRVYAPELYRRILHDAEQLGDPTLMEKAAGEFVERFPAHPWVQRFREELAAVEYNRGDFQRVVGRLSGMLASGTRPEYAESLYYLGKSLDASGNRRDAERAMLLFLAELRRREMSSPLAADASYVAATARLSRGDRKGAKEILRAAGEASPEERDPFLYKLGEIARSEGRYEEAAHYLRTVVKEGKDPDWRDMASRLLADMELTGMVRKSK | failed
8 | MTLAPRHLRIEQRGRVLQVLLDNPPANFLTTAVMQELADLLEDLEQRQDIGAVILSGAADGVFLTHFDVDEIERAVAPITFSMPAWLTRLLLESESLLRHLPGARKLLRRTLLAGVADMNLFHEVTAHMRRMDKVFIAAINGLALGGGCELALACDLRLMAEDDQVERFLGQPEVLIGLIPGGGGTQMLARSLGVARALELCLEGQLLEPRQALALGLVNGLAPAEELLEAADALAQRLSRRSPQAVRLIKRSIYQAASRDWTEGMASEKAGFLSAASQGNTRRAMREYIERVRTITREERPFRRADFDDLTEGNAID | failed
9 | MTLDNRAFLKQSSKKLLFRFAVPAIFSLLVNELYNMVDTVFAGRYIGENAIGAMTIAFPIQKILIAMGLLIATGASTYAARVIGEKNYKELKKIVINSCALTIVSIISISFIIFQFKSSILYSLGASDNTYPMAVQYISIILFGSIFMCLASVMSYIMVSLGKTKTLLYTNIVGVLLNIILNYVLVIQLHMGIRGSGIATVLSQLAAFVVALVQFAYMNKKQNFKFFENISTNIISGDIIREIVLVGFSTFIIEIADAVVSAVLNNVLYAGGGDSAIIMLGVITKVYMFMFITVIGISSGMQPIVGYNFGAGNYKKAKDILKFSLKTVIIISAFVWVGFIIWAQPLIGFFLKDAQLVSKTVSAFRIVISMLPLLGIYYVAIYYYQAIGEARISFILSIYRELIMFIPMAVILFKIVGINGVFIAYPLTDIIVILTSVYFIRRAFKEQFAEESIPKRVGARA | failed
10 | MTLFAEYNSPYLFAIAFVFFIGVLEMISLIFGHFLSGALDAHLDHYDALSSGPAGQALHYLNIGRVPALVVLCLLAGYFGLFGILIQHGGIMLWQAPLSNLLLVPLSIVLSVFAVHYSGKILAPWLPRDESSALREEEFIGGMAIITGHAAVAGTPCEGKFTDKFGQIHYLLLEPEKGKEFKKGDKVLIICRLSATRYLAERTFYV | failed
11 | MTLGLTPKFVKIFLFVGLMLLSTSLAVIFPLNSVEGLGSGVTKTVLDNGLTVLIKEIPTAPVVSLQVWYRVGSRHEPKGENGIAHQLEHLMFKGTQSRPVQFGQLFYALGSSSNAFTSYDMTAYHHTVRADQLEPLLILEADRLRHTLITPDALESEKRVVISELQGYENSPEYRLSRAVMAALYPKHPYGLPVGGTASDVEQLTLAAVKSFYQQYYRPDNAVVVIAGNVRAARALELVKSTFGAIPQPPEPLISPPLPPPGAVSGQRIRLREPGSAPLLQILVPIPGITHPDQAALDVLDMLLSGGRSSYFYQELMETGQASSAYSYVAALQEGGWFEMGAIASPDQSLETIEQSIGKMLQQLAERPLSLAELQRAKQQLKANFILRNRDIDAQASQLANDETLTGDYRFSDRHLAAIEKVTAADVQRVVQTYFGRDRWIVGEFIPSEFADVELSGRPAVQTTAHNLIGEPVDPQTIAAYLPQGSAQAAPAVKNNGVETFTLENGLRVLLLVDRSTPTVTLAGRIDAGTAYDLLTQPGVANLTAANLLNGTRTKTALTLAQTLEDRGISLEFSAFRDGVDVEGYALASELPTLLATLGEVLQEATFPEAEFKLSQQRYLTALGLEADDPVRWGRRVLQETLYPAHHPLHPFATPESVQAIQRQDLLNFYRAAYRPDRTILTLVGDFDPLAVRSRLKDIFGPWQPPTAPLSLTFPAVSPPPQTLFRNAVIAGKSQAITYLGTPGIDRRHPRFYAAMLMNHILGGDTLASRLGTEIRDRQGLTYGIYSFFTASRQAGPFMIQLQTAPEDTAKAIQATLQLLREARRQGFTAAELEAAKRSLSNTYLVELANVDVVARTLLANASVDLPPQELQQFSDRLQQVSLAEVNQALRELIDPERLVIVTAGPAVSFSP | failed
12 | MTLKAGIVGIGMIGSDHLRRLANTVSGVEVVAVCDIVAGRAQAALDKYAIEAKDYNDYHDLINDKDVEVVIITASNEAHADVAVAALNANKYVFCEKPLAVTAADCQRVIEAEQKNGKRMVQIGFMRRYDKGYVQLKNIIDSGEIGQPLMVHGRHYNASTVPEYKTPQAIYETLIHEIDVMHWLLNEDYKTVKVYFPRQSSLVTTLRDPQLVVMETTSGINIVVEVFVNCQYGYDIHCDVTGEKGMAELPTVASAAVRKAAKYSTDILVDWKQRFIDAYDIEFQDFFDRLNAGLPPAGPTSWDGYLAAVTADACVKSQETGNTEIVELPSKPDFYK | not failed
13 | MTLLRVGGVPEPFNEIFMQAQEGALPSTKLQVEFLGVAGGSGAALEMLAKCELDVAVTLTESAVARTKAAASGLAVHSVYVASPLAWGVAVSSKKTDWTDLNSLDAAVLRGESIRAGFSRRGSGSHLLLSVFASDRGWISTGIQNDILKSFECGSFDGLIQAAVAGDIDMFLWETCFTKECAATRQGLIRLVGEYAPSWPAFVLVCRDDAHVRAAVSELKREIEPLQRKFCTGEGLDILQNKYGFSLESAKLWLSRLQFAEPDEALSAEQWRSVERALELTAGSRSSSR | not failed
14 | MTLNAKGESNQILVDKEVHSTNLLLDIDEKPELFQGLLLSFQHVFAMFGATILVPLILGMPVSVALFASGCGTLIYQVATKFKVPVYLGSSFAYITAMALAMKQMHGDISAAQTGILFVGLIYVVVATVIKFVGNSWVDKILPPIIIGPMIIVIGLGLANSAVTNAGFVAKGDWRKMLVAVVTFLIAAFINTKGKGFIKIIPFLFAIIGGYILSIILGLVDLSPVEKAAWFELPKFYLPFKTGLFHSYKLYFGPEMLAILPISIVTIAENIGDHTVLGQICGRNFLKKPGLNRLLIGDGLATAFSALIGGPAETTYGENTGVIGMTRIASVTVIRNAAFIAIAFSFFGKFTALISTIPSAVLGGMAILLYGVIASNGLKVLIENRVNFAEVRNLIIASSMLVLGLGGAVLDLGALTLSGTALSAIVGIILNLILPKESMKS | not failed
15 | MTLNIYTEEWAPISFSVDGKPDGLAVQVVQEIQKRIDNQDPIKVVPWARGWKIITEQPNTVLFTMTRTAERERMFSLIGPVAVGTTNFYALKNSNLKINLEHHHHHH | not failed
16 | MTLRTRITLLTAGLLLVAFLVLGFALEGLLRNFLYGSLRTDLKEAANQVVRLLNLGGQALLEAGLPPSLYAEVQLLPEEDPALLAREGGISLQKSPALGSQRLLLQEEAYRELLKRGEVWAYAELPREGHPLRLLVYARKVEVNLSGSVWKGALLVGRPTEDLEATLSQFARIYAGTALFVLLLSLFLARGLVARALEPLEWAARKAEAMSARPEPLPEPETRDEVAALVKALNGMLTRLQEAFEAQTRFLQDASHELRTPITAILGHVGYLLRRTPLTEAQRESLEVVKREAERMGKLVSDLLDLSQSGTWRIRPVPVRVLDLLEEVREEFAKSFDGAILVEAPEDLYVLGDPDRLHQVMANLVSNALKAGARHVWLRAFDLGDKAVVRVEDDGEGIPEEHLPHLFERFYRVDKARDRERGGSGLGLAIVKAILEAHGGEVWVESQVGKGTAFSFSLPASGPPPPPR | failed
